This test deals with T1, N-terminal biotinylated ubiquitin (UniProt P0CG48 1-76, biotin on the N-terminus).
T1 construct: also called Bio-Ub; free ubiquitin peptide; source: bought: BostonBiochem (Catalog No. UB-570)
Kind of test: pull-down; 5 μg His-tagged protein incubated with 1 μg biotinylated molecule (H4ac peptide or Ub) in 50 mM Tris pH 7.5, 150 mM NaCl, 0.1% NP-40, 2 h at 4 °C; captured on streptavidin-coated beads; immunoblot with anti-V5. The conditions noted are these: both partners purified. A general note: A western blot detects proteins with antibodies after separation by electrophoresis.

B1: V5-His6-tagged RIOK3 protein, purified from E. coli (natural protein, human, UniProt O14730 1-519, looked up)
chain: MDLVGVASPEPGTAAAWGPSKCPWAIPQNTISCSLADVMSEQLAKELQLEEEAAVFPEVAVAEGPFITGENIDTSSDLMLAQMLQMEYDREYDAQLRREEKKFNGDSKVSISFENYRKVHPYEDSDSSEDEVDWQDTRDDPYRPAKPVPTPKKGFIGKGKDITTKHDEVVCGRKNTARMENFAPEFQVGDGIGMDLKLSNHVFNALKQHAYSEERRSARLHEKKEHSTAEKAVDPKTRLLMYKMVNSGMLETITGCISTGKESVVFHAYGGSMEDEKEDSKVIPTECAIKVFKTTLNEFKNRDKYIKDDFRFKDRFSKLNPRKIIRMWAEKEMHNLARMQRAGIPCPTVVLLKKHILVMSFIGHDQVPAPKLKEVKLNSEEMKEAYYQTLHLMRQLYHECTLVHADLSEYNMLWHAGKVWLIDVSQSVEPTHPHGLEFLFRDCRNVSQFFQKGGVKEALSERELFNAVSGLNITADNEADFLAEIEALEKMNEDHVQKNGRKAASFLKDDGDPPLLYDE
notes: also called V5-fused RIOK3; pET-DEST42-RIOK3; source: E. coli DE3 strain, purified
Regarding B1, the binding result is recorded as “binds”.

The values are drawn from paper PMC6818353, “Diversified Application of Barcoded PLATO (PLATO-BC) Platform for Identification of Protein Interactions” (Genomics, Proteomics & Bioinformatics, 2019).
